Experiments:
[1] = test system: HLA-A*0201 transgenic mice; assay: In vivo immunogenicity of the peptides; conditions: 100 μg per mouse s.c., single immunization, splenocytes two weeks after
Source text: HLA-A*0201 transgenic (Tg[HLA-A2.1]) mice were purchased from Jackson Laboratory (Bar Harbor, Me.). Ishioka, G. Y., et al., Utilization of MHC Class I Transgenic Mice for Development of Minigene DNA Vaccines Encoding Multiple HLA-Restricted CTL Epitopes, J. Immunol. 1999, 162:3915-3925; Alexander, J., et al., A Decaepitope Polypeptide Primes for Multiple CD8+ IFN-Gamma and Th Lymphocyte Responses: Evaluation of Multiepitope Polypeptides as a Mode for Vaccine Delivery, J. Immunol. […] Mice were maintained at the animal facility and studies were approved by the Institutional Animal Care and Use Committees of The University of Texas M. D. Anderson Cancer Center.
For immunization, peptides were diluted in PBS at room temperature, mixed, and emulsified with an equal volume of incomplete Freund's adjuvant (Sigma). […]
To examine whether the peptides were able to immunize HLA-A*0201 transgenic mice, we injected 100 μg per mouse of peptides P20 (SEQ. ID NO. 1) and P66v (SEQ. ID. NO. 4), and Flu-matrix peptide as positive control s.c. to the mice (3 mice per peptide) according to established protocol. […] In vivo immunization successfully generated peptide-specific T cells, detected as specific IFN-γ-expressing (FIG. 2C) and peptide (P20 or P66v)-HLA-A*0201 tetramer^+ CD8^+ T cells (FIG. 2D).

[2] = test system: DKK1 peptide-specific T-cell lines; assay: T-cell proliferation assay (3[H]-thymidine); type: cell-based, human; conditions: after 3 to 4 rounds of in vitro stimulation; P<0.01 compared with unpulsed DC
Method: DKK1-specific T cells were generated from PBMCs of HLA-A*0201^+ blood donors and myeloma patients by repeated stimulation of autologous T cells with DKK1 peptide-loaded mature DCs. Briefly, the non-adherent cells of PBMCs (2×10^6/mL; used as T-cell population) were cocultured in 50 mL tissue-culture flasks at 37° C. in 5% CO2 for 7-10 days in Aim-V medium supplemented with 10% pooled human serum (T-cell medium) with mature DCs (2×10^5/mL) preincubated with DKK1 peptides at a final concentration of 50 μg/mL at 37° C. for 2 h. After culture, T cells were collected and restimulated with DKK1 peptide-pulsed autologous mature DCs every week, and the cultures were fed every 5 days with fresh medium containing recombinant IL-2 (20 IU/mL), IL-7 (5 ng/mL) and IL-15 (5 ng/mL; all from R&D System). Induction of DKK1-specific T cells was monitored weekly using T-cell proliferation assay and DKK1 peptide-HLA-A*0201 tetramers (synthesized by MHC Tetramer Laboratory, Baylor College of Medicine, Houston, Tex.). […]
T cells (5×10^4/100 μL/well) were seeded into 96-well U-bottom tissue culture plates (Corning Incorporated, Corning, N.Y.) in T-cell medium. […] T-cell proliferation was measured after overnight incubation with ^3[H]-thymidine ([…]/0.037 MBq/well). Results are expressed as mean count per minute (CPM) of triplicate cultures.

HLA-A*0201 molecules = molecular target: T1, HLA-A*0201 molecules (Homo sapiens, UniProt P04439, D140Y/D185E/D98H/E176V/E277Q/G131W/G231S/I119V/I121R/I166T/I218V/L300P/L318F/N151K/N90K/P208A/P217A/Q86G/Q94H/R138H/R169H/T345S); assay: Peptide-T2 cell binding assay; conditions: HLA-A*0201 expression by flow cytometry (FIG. 2A)
T1 construct: endogenous in cells; host or cells: T2 cell line
Method: All peptides were synthesized in the Peptide Synthesis Facility at M. D. Anderson Cancer Center. Purity of synthetic peptides was confirmed to be >98% by reverse-phase high-performance liquid chromatography and mass spectrometry. Synthetic peptides were dissolved in dimethylsulfoxide (DMSO; Sigma, St. Louis, Mo.), and stored at −20° C. until use. Peptides binding to HLA-A*0201 molecules were measured using the T2 cell line according to a protocol previously described. Nijman, H. W., et al., Identification of Peptide Sequences that Potentially Trigger HLA-A2.1-Restricted Cytotoxic T Lymphocytes, Eur J. Immunol. 1993, 23:1215-1219. Briefly, T2 cells were incubated overnight with 3 μg/mL of β2-microglobulin (Sigma) and different concentrations of peptides, followed by wash and incubation with FITC-labeled anti-HLA-A*0201 mAb BB7.2 (BD PharMingen). After washing, cells were analyzed for the levels of HLA-A*0201 expression by flow cytometry. HLA-A*0201 expression was quantified according to the formula [(mean fluorescence with peptide−mean fluorescence without peptide)/mean fluorescence without peptide]×100.

[3] = molecular target: T2, HLA-A*0201 molecules on T2 cells (human); assay: cell-based or functional assay
T2 construct: MHC class I molecule on T2 cells; also called HLA-A2.1

HLA-ABC = assay: cell-based or functional assay
[4] = test system: murine myeloma cell line tumor-A; assay: Vaccination and murine myeloma challenge; type: in vivo, Balb/c mice; conditions: vaccinated three times, s.c. challenge with tumor-A 1×10^6 cells/mouse
Method: Balb/c mice (4 per group) were s.c. vaccinated three times with murine DKK1 protein (50 ug/mouse) at a 30-day interval followed by s.c. challenge with murine myeloma cell line tumor-A (1×10^6 cells/mouse) after one weeks of third vaccination. Tumor burdens were measured twice every wk. Mice were euthanized when s.c. tumors reached 225 mm^2 or when mice became moribund. FIG. 18A is a graph depicting ELISA titers of anti-DKK1 antibody in the serum of immunized mice. Results shown in FIG. 18B are survival of mice that received DKK1 protein vaccinations and PBS control. Splenocytes were isolated from survival mice and pooled, and restimulated with irradiated tumor-A for 5 d. […]
Balb/c mice (5 per group) were s.c. vaccinated three times with three DKK1 peptides (100 ug/mouse) at a 14-day interval followed by s.c. challenge with murine myeloma cell line tumor-A (1×10^6 cells/mouse) after one week of third vaccination. Tumor burdens were measured twice every wk. […]
Balb/c mice (5 per group) were i.m. vaccinated three times with murine DKK1 DNA (50 ug/mouse) at a 14-day interval followed by s.c. challenge with murine myeloma cell line tumor-A (1×10^6 cells/mouse) after one weeks of third vaccination. Tumor burdens were measured twice every wk. […]

[5] = molecular target: T2, HLA-A*0201 molecules on T2 cells; assay: peptide-T2 cell binding assay, flow cytometry of surface HLA-A*0201 with mAb BB7.2
Method: All peptides were synthesized in the Peptide Synthesis Facility at M. D. Anderson Cancer Center. Purity of synthetic peptides was confirmed to be >98% by reverse-phase high-performance liquid chromatography and mass spectrometry. Synthetic peptides were dissolved in dimethylsulfoxide (DMSO; Sigma, St. Louis, Mo.), and stored at −20° C. until use. […] Nijman, H. W., et al., Identification of Peptide Sequences that Potentially Trigger HLA-A2.1-Restricted Cytotoxic T Lymphocytes, Eur J. Immunol. 1993, 23:1215-1219.

ALGGHPLLGV (listed as Homo Sapiens) [P20]
immunogenicity in immunizing the mice [1]: as immunogenic as the Flu-matrix peptide | T-cell line proliferation in response to autologous DCs pulsed with peptide [2]: proliferated in response to autologous DCs pulsed, but not unpulsed

ILYPGGNKV (listed as Homo Sapiens) [P66v]
immunogenicity in immunizing the mice [1]: as immunogenic as the Flu-matrix peptide | binding affinity (HLA-A*0201 molecules): much higher binding affinity than P66 | T-cell line proliferation in response to autologous DCs pulsed with peptide [2]: proliferated in response to autologous DCs pulsed, but not unpulsed

anti-HLA-A*0201 mAb BB7.2 (antibody)
inhibition of T cell-mediated cytotoxicity against peptide-pulsed T2 cells (51Cr release) [3]: 70 to 80 % inhibition

anti-HLA-ABC mAb W6/32 (antibody)
inhibition of T cell-mediated cytotoxicity against peptide-pulsed T2 cells (51Cr release) (HLA-ABC): 70 to 80 % inhibition

B1: DKK1 Protein Vaccine: murine DKK1 protein, 50 ug/mouse s.c. (protein, UniProt O54908 32-272, looked up)
Dickkopf-related protein 1: TLNSVLINSNAIKNLPPPLGGAGGQPGSAVSVAPGVLYEGGNKYQTLDNYQPYPCAEDEECGSDEYCSSPSRGAAGVGGVQICLACRKRRKRCMRHAMCCPGNYCKNGICMPSDHSHFPRGEIEESIIENLGNDHNAAAGDGYPRRTTLTSKIYHTKGQEGSVCLRSSDCAAGLCCARHFWSKICKPVLKEGQVCTKHKRKGSHGLEIFQRCYCGEGLACRIQKDHHQASNSSRLHTCQRH
protection against murine MM challenge [4]: can Protect Murine MM Challenge

B2: DKK1 peptide P20 (peptide)
peptide: ALGGHPLLGV
notes: Synthetic peptide, purity >98%; the end of the range follows from the length of 10 residues
binding result [5]: binds

YLGGHPLLGV (Heteroclitic variant of P20) [DKK1 heteroclitic peptide Py20]
binding result [5]: binds

ILYPGGNKV (Heteroclitic variant of P66) [DKK1 heteroclitic peptide P66v]
binding result [5]: binds

B3: DKK1 peptide P66 (peptide)
peptide: ILYPGGNKY
notes: Synthetic peptide; the end of the range follows from the length of 9 residues
binding result [5]: binds

— US20100129390A1, “DKK1 AS A UNIVERSAL TUMOR VACCINE FOR IMMUNOTHERAPY OF CANCERS” (priority 2007, published 2010)
